Key:
ADRP [1] = details: cited from earlier work
lipid droplets = test: Intracellular localization of core proteins and lipid droplets (indirect immunofluorescence, oil red O, confocal microscopy); format: cell-based, hamster; details: BHK C13 cells, 20 hours after electroporation, antibody JM122 and oil red O
Method: BHK C13 cells were harvested 20 hours after electroporation and fixed with 4% paraformaldehyde, 0.1% Triton X-100. Indirect immunofluorescence was performed with antibody JM122 and an anti-mouse secondary antibody conjugated with FITC. Lipid droplets were stained with oil red O. Panels A, D, G, J, M, P, S and V show the distributions of core protein. Panels B, E, H, K, N, Q, T and W show the locations of lipid droplets. Panels C, F, I, L, O, R, U and X are merged images of core protein and lipid droplets. Cells were electroporated with RNA from the following constructs: panels A, B and C, pSFV.1-195; panels D, E and F, pSFV.1-173; panels G, H and I, pSFV.1-169; panels J, K and L, pSFV.1-153; panels M, N and O, pSFV.Δ155-161; panels P, Q and R, pSFV.Δ161-166; panels S, T and U, pSFVA125-144; panels V, W and X, pSFV.1-124, 145-152.
(§1) 0.8 ml of competent cells were mixed with in vitro transcribed RNA in an electroporation cuvette (0.4 cm gap) and pulsed twice at either 1.2 kV, 25 μF (for BHK C13 cells) or 0.36 kV, 960 μF (for MCA RH7777 cells). Between pulses, the cell/RNA suspension was gently mixed. Following electroporation, cells were diluted in growth medium and seeded onto either tissue culture dishes or coverslips in 24-well tissue culture plates and then incubated at 37° C.
(§2) Cells on 13 mm coverslips were fixed in either methanol at −20° C. or 4% paraformaldehyde, 0.1% Triton X-100 (prepared in PBS) at 4° C. for 30 mins. Following washing with PBS and blocking with PBS/CS (PBS containing 1% newborn calf serum), cells were incubated with primary antibody (diluted in PBS/CS at 1/200 for JM122 antibody, 1/1000 for 308 antisera and 1/100 for adipophilin antibody) for 2 hours at room temperature. Cells were washed extensively with PBS/CS and then incubated with conjugated secondary antibody (either anti-mouse or anti-rabbit IgG raised in goat) for 2 hours at room temperature. Cells were washed extensively in solutions of PBS/CS followed by PBS and finally H2O before mounting on slides using Citifluor. Samples were analyzed using a Leiss LSM confocal microscope.
Following incubation with both antibodies and washing, lipid droplets were stained in paraformaldehyde-fixed cells by briefly rinsing coverslips in 60% propan-2-ol followed by incubation with 0.5 ml 60% propan-2-ol containing oil red O for 1.5-2 mins at room temperature. Coverslips were briefly rinsed with 60% propan-2-ol, washed with PBS and H2O and mounted as described above. The oil red O staining solution was prepared from a saturated stock of approximately 1% oil red O dissolved in propan-2-ol. Before staining, the stock was diluted with H2O and then filtered.
This conclusion was arrived at by combining the techniques of immune electron microscopy with the ability to stain lipid with osmium tetroxide. However, this method suffers from the disadvantages that it is time-consuming and osmium tetroxide can stain other biological molecules (e.g. proteins) in addition to lipid. Therefore, we developed a method for detecting proteins firstly by indirect immunofluorescence followed by staining of lipid droplets with the oil-soluble colorant oil red O. Combined with the method of confocal microscopy, it is possible to visualize the intracellular localizations of core protein and lipid droplets separately and together. Here, BHK C13 cells have been electroporated with pSFV.1-195 RNA and, following incubation at 37° C. for 20 hours, the cells have been examined by both indirect immunofluorescence and staining with oil red O. In panel A, the core protein produced by pSFV.1-195 is seen to locate to vesicular structures in the cytoplasm.

ADRP [2] = test: Effect of expression of core proteins on the ability to detect ADRP in BHK C13 cells by confocal microscopy; format: cell-based, hamster; details: 20 hours after electroporation, anti-adipophilin antibody
Method: Cells were harvested 20 hours after electroporation and fixed with methanol. ADRP was detected with anti-adipophilin antibody and core protein with 308 antisera. Secondary antibodies were an anti-mouse IgG conjugated with FITC (for anti-adipophilin) and anti-rabbit IgG conjugated with Cy5 (for 308 antisera). Panels A, D, G, J, M and P are images of ADRP localization. Panels B, E, H, K, N, and Q are images of core distribution. Panels C, F, I, L, O and R show the merged images of core and ADRP distributions. Cells were electroporated with RNA from the following constructs: panels A, B and C, pSFV.1-195; panels D, E and F, pSFV.1-173; panels G, H and I, pSFV.1-169; panels J, K and L, pSFV.1-153; panels M, N and O, pSFV.Δ155-161; panels P, Q and R, pSFV.Δ161-166.
as §1, §2

ADRP [3] = test: Effect of expression of core protein on the abundance of ADRP (Western blot); format: cell-based, hamster; details: BHK C13 cells, extracts at various times following electroporation
Method: BHK C13 cells were electroporated with RNA from pSFV.1-195 and pSFV.1-153 and extracts were prepared at the times indicated following electroporation. Aliquots of cell extracts were electrophoresed on 10% polyacrylamide gels and then the proteins were transferred to nitrocellulose membrane for Western blot analysis. The upper panels show membranes probed with JM122 antibody while, in the lower panels, membranes were probed with anti-adipophilin antibody. Bands corresponding to core proteins, expressed from pSFV.1-195 and pSFV.1-153, and ADRP are arrowed.
To prepare extracts, electroporated cells were harvested by removing the growth medium and washing the cell monolayers with PBS. Cells were scraped into PBS and pelleted by centrifugation at 100 g for 5 mins at 4° C. The cell pellet was solubilized in sample buffer consisting of 160 mM Tris (pH 6.7), 2% SDS, 700 mM β-mercaptoethanol, 10% glycerol, 0.004% bromophenol blue.
For Western blot analysis, proteins were separated on polyacrylamide gels and transferred to nitrocellulose membrane using standard techniques. The nitrocellulose membrane was blocked in 3% gelatin, 20 mM Tris (pH 7.5), 500 mM NaCl for at least 6 hours at 37° C. prior to incubation with the primary antibody. […] Bound antibody was detected by enhanced chemiluminescence.

Molecule	ADRP expression (ADRP [1])	intracellular localization of core protein relative to lipid droplets (lipid droplets)	ADRP detected by immunofluorescence in core-expressing cells (ADRP [2])	abundance of ADRP by Western blot (ADRP [3])
CC(C)Cc1ccc(C(C)C(=O)O)cc1 (stereo not drawn) [ibuprofen]	stimulate ADRP expression			
COc1ccc2c(c1)c(CC(=O)O)c(C)n2C(=O)c1ccc(Cl)cc1 [indomethacin]	stimulate ADRP expression			
pSFV.Δ161-166: construct lacking the sequences encoding residues 161 to 166 of the core protein of HCV strain Glasgow (protein) GACECPGRSRRPCTMSTNPKPQRKTKRNTNRRPQDVKFPGGGQIVGGVYLLPRRGPRLGVRATRKTSERSQPRGRRQPIPKARRPKGRNWAQPGYPWPLYGNEGCGWAGWLLSPSGSRPSWGPNDPRRRSRNLGKVIDTLTCGFVDLMGYIPLVGAPLRGHGVRVLEDGVNYATGNLPGCSFSIFLLAL		diffuse cytoplasmic pattern	readily found	
pSFV.1-169: SFV construct encoding amino acid residues 1-169 of HCV strain Glasgow core (protein) GACECPGRSRRPCTMSTNPKPQRKTKRNTNRRPQDVKFPGGGQIVGGVYLLPRRGPRLGVRATRKTSERSQPRGRRQPIPKARRPKGRNWAQPGYPWPLYGNEGCGWAGWLLSPSGSRPSWGPNDPRRRSRNLGKVIDTLTCGFVDLMGYIPLVGAPLRGAARALAHGV		continue to locate to lipid droplets	barely detectable	
pSFV.1-195: SFV construct encoding the N-terminal 195 amino acids of HCV strain Glasgow (core protein) (protein) GACECPGRSRRPCTMSTNPKPQRKTKRNTNRRPQDVKFPGGGQIVGGVYLLPRRGPRLGVRATRKTSERSQPRGRRQPIPKARRPKGRNWAQPGYPWPLYGNEGCGWAGWLLSPSGSRPSWGPNDPRRRSRNLGKVIDTLTCGFVDLMGYIPLVGAPLRGAARALAHGVRVLEDGVNYATGNLPGCSFSIFLLAL		sited around the lipid droplets	either lacked or contained barely detectable amounts of ADRP	rapid reduction in ADRP levels to barely detectable quantities
pSFV.1-124,145-152: core variant truncated at residue 152 and lacking amino acids 125 to 144 (protein) GACECPGRSRRPCTMSTNPKPQRKTKRNTNRRPQDVKFPGGGQIVGGVYLLPRRGPRLGVRATRKTSERSQPRGRRQPIPKARRPKGRNWAQPGYPWPLYGNEGCGWAGWLLSPSGSRPSWGPNVDLMGYIP		diffuse fluorescence		
pSFV.Δ125-144: construct expressing a core variant in which residues 125 to 144 had been deleted (protein) GACECPGRSRRPCTMSTNPKPQRKTKRNTNRRPQDVKFPGGGQIVGGVYLLPRRGPRLGVRATRKTSERSQPRGRRQPIPKARRPKGRNWAQPGYPWPLYGNEGCGWAGWLLSPSGSRPSWGPNVDLMGYIPLVGAPLRGAARALAHGVRVLEDGVNYATGNLPGCSFSIFLLAL		diffuse fluorescence		
pSFV.Δ155-161: construct lacking the sequences encoding residues 155 to 161 of the core protein of HCV strain Glasgow (protein) GACECPGRSRRPCTMSTNPKPQRKTKRNTNRRPQDVKFPGGGQIVGGVYLLPRRGPRLGVRATRKTSERSQPRGRRQPIPKARRPKGRNWAQPGYPWPLYGNEGCGWAGWLLSPSGSRPSWGPNDPRRRSRNLGKVIDTLTCGFVDLMGYIPLVARALAHGVRVLEDGVNYATGNLPGCSFSIFLLAL		did not affect lipid droplet association	barely detectable	
pSFV.1-173: SFV construct encoding amino acid residues 1-173 of HCV strain Glasgow core (protein) GACECPGRSRRPCTMSTNPKPQRKTKRNTNRRPQDVKFPGGGQIVGGVYLLPRRGPRLGVRATRKTSERSQPRGRRQPIPKARRPKGRNWAQPGYPWPLYGNEGCGWAGWLLSPSGSRPSWGPNDPRRRSRNLGKVIDTLTCGFVDLMGYIPLVGAPLRGAARALAHGVRVLE		continue to locate to lipid droplets	barely detectable	
pSFV.1-153: SFV construct encoding amino acid residues 1-153 of HCV strain Glasgow core (protein) GACECPGRSRRPCTMSTNPKPQRKTKRNTNRRPQDVKFPGGGQIVGGVYLLPRRGPRLGVRATRKTSERSQPRGRRQPIPKARRPKGRNWAQPGYPWPLYGNEGCGWAGWLLSPSGSRPSWGPNDPRRRSRNLGKVIDTLTCGFVDLMGYIPL		do not associate with lipid droplets	readily found	no change in the abundance of ADRP
